# Columns and labels:
# [1] = target: rHuman P-Cadherin/Fc Chimera, CF (R&D Systems Cat#861-PC) (human) (UniProt P22223); test: ECL (MSD multi-spot), Fab 340 nM; blank 554
# [2] = target: rHuman CD44/Fc Chimera, CF (R&D Systems Cat#3660-CD) (human) (UniProt P16070); test: ECL (MSD multi-spot), Fab 340 nM; blank 554
# [3] = target: rHuman Notch-1/Fc Chimera, CF (R&D Systems Cat#3647-TK) (human) (UniProt P46531); test: ECL (MSD multi-spot), Fab 340 nM; blank 554
# [4] = target: rHuman IGF-1 sR (IGF-1 sR), CF (R&D Systems Cat#391-GR) (human) (UniProt P08069); test: ECL (MSD multi-spot), Fab 340 nM; blank 554
# [5] = target: rHuman HGF R/c-MET/Fc Chimera, CF (R&D Systems Cat#358-MT/CF) (human) (UniProt P08581); test: ECL (MSD multi-spot), Fab 340 nM; blank 554
# [6] = target: rHuman Erythropoietin R/Fc Chimera, CF (R&D Systems Cat#963-ER) (human) (UniProt P19235); test: ECL (MSD multi-spot), Fab 340 nM; blank 554
# Sequence of rHuman Erythropoietin R/Fc Chimera, CF (R&D Systems Cat#963-ER) (human) (P19235 25-250, change not shown): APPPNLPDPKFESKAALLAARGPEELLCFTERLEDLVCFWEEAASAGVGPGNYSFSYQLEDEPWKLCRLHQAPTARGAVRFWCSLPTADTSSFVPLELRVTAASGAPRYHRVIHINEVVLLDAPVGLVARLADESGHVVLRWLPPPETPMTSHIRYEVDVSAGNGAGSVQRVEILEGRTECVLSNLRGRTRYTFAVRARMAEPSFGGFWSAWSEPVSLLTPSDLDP
# [7] = target: rHuman ErbB2/Fc Chimera, CF (R&D Systems Cat#1129-ER) (human) (UniProt P04626); test: ECL (MSD multi-spot), Fab 340 nM; blank 554
# [8] = target: rHuman EGF R/Fc Chimera, CF (R&D Systems Cat#344-ER) (human) (UniProt P00533); test: ECL (MSD multi-spot), Fab 340 nM; blank 554
# [9] = target: rHuman P-Cadherin/Fc Chimera, CF (R&D Systems Cat#861-PC) (human) (UniProt P22223); test: ECL (MSD multi-spot) screen, antigen spotted on plate, Fab at 0.34 uM; blank spot 356
# [10] = target: rHuman Notch-1/Fc Chimera, CF (R&D Systems Cat#3647-TK) (human) (UniProt P46531); test: as above
# [11] = target: rHuman HGF R/c-MET/Fc Chimera, CF (R&D Systems Cat#358-MT/CF) (human) (UniProt P08581); test: as above
# [12] = target: rHuman Erythropoietin R/Fc Chimera, CF (R&D Systems Cat#963-ER) (human) (UniProt P19235); test: as above
# [13] = target: rHuman ErbB2/Fc Chimera, CF (R&D Systems Cat#1129-ER) (human) (UniProt P04626); test: as above
# [14] = target: rHuman IGF-1 sR, CF (R&D Systems Cat#391-GR) (human) (UniProt P08069); test: as above
# [15] = target: rHuman P-Cadherin/Fc Chimera, CF (R&D Systems Cat#861-PC) (human) (UniProt P22223); test: ECL (MSD multi-spot), Fab 170 nM; blank 262
# [16] = target: rHuman CD44/Fc Chimera, CF (R&D Systems Cat#3660-CD) (human) (UniProt P16070); test: ECL (MSD multi-spot), Fab 170 nM; blank 262
# [17] = target: rHuman Notch-1/Fc Chimera, CF (R&D Systems Cat#3647-TK) (human) (UniProt P46531); test: ECL (MSD multi-spot), Fab 170 nM; blank 262
# [18] = target: rHuman Erythropoietin R/Fc Chimera, CF (R&D Systems Cat#963-ER) (human) (UniProt P19235); test: ECL (MSD multi-spot), Fab 170 nM; blank 262
# [19] = target: rHuman ErbB2/Fc Chimera, CF (R&D Systems Cat#1129-ER) (human) (UniProt P04626); test: ECL (MSD multi-spot), Fab 170 nM; blank 262
# [20] = target: rHuman EGF R/Fc Chimera, CF (R&D Systems Cat#344-ER) (human) (UniProt P00533); test: ECL (MSD multi-spot), Fab 170 nM; blank 262
# [21] = target: rHuman P-Cadherin/Fc Chimera, CF (R&D Systems Cat#861-PC) (human) (UniProt P22223); test: ECL (MSD multi-spot), Fab 85.0 nM; blank 292
# [22] = target: rHuman CD44/Fc Chimera, CF (R&D Systems Cat#3660-CD) (human) (UniProt P16070); test: ECL (MSD multi-spot), Fab 85.0 nM; blank 292
# [23] = target: rHuman Notch-1/Fc Chimera, CF (R&D Systems Cat#3647-TK) (human) (UniProt P46531); test: ECL (MSD multi-spot), Fab 85.0 nM; blank 292
# [24] = target: rHuman IGF-1 sR (IGF-1 sR), CF (R&D Systems Cat#391-GR) (human) (UniProt P08069); test: ECL (MSD multi-spot), Fab 85.0 nM; blank 292
# [25] = target: rHuman HGF R/c-MET/Fc Chimera, CF (R&D Systems Cat#358-MT/CF) (human) (UniProt P08581); test: ECL (MSD multi-spot), Fab 85.0 nM; blank 292
# [26] = target: rHuman Erythropoietin R/Fc Chimera, CF (R&D Systems Cat#963-ER) (human) (UniProt P19235); test: ECL (MSD multi-spot), Fab 85.0 nM; blank 292
# [27] = target: rHuman ErbB2/Fc Chimera, CF (R&D Systems Cat#1129-ER) (human) (UniProt P04626); test: ECL (MSD multi-spot), Fab 85.0 nM; blank 292
# [28] = target: rHuman EGF R/Fc Chimera, CF (R&D Systems Cat#344-ER) (human) (UniProt P00533); test: ECL (MSD multi-spot), Fab 85.0 nM; blank 292
substance,measurement,setting,value
Fab VH4-34_IGHD7-27*01_IGHJ4*01 & V4-6_IGLJ4*01,ECL signal,[1],1160 ECL signal
same,ECL signal,[2],959 ECL signal
same,ECL signal,[3],1210 ECL signal
same,ECL signal,[4],1040 ECL signal
same,ECL signal,[5],1240 ECL signal
same,ECL signal,[6],1260 ECL signal
same,ECL signal,[7],1230 ECL signal
same,ECL signal,[8],1210 ECL signal
same,ECL signal,[9],935
same,ECL signal,[10],912
same,ECL signal,[11],914
same,ECL signal,[12],907
same,ECL signal,[13],900
same,ECL signal,[14],871
same,ECL signal,[15],744 ECL signal
same,ECL signal,[16],660 ECL signal
same,ECL signal,[17],816 ECL signal
same,ECL signal,[18],790 ECL signal
same,ECL signal,[19],964 ECL signal
same,ECL signal,[20],826 ECL signal
same,ECL signal,[21],709 ECL signal
same,ECL signal,[22],693 ECL signal
same,ECL signal,[23],780 ECL signal
same,ECL signal,[24],891 ECL signal
same,ECL signal,[25],998 ECL signal
same,ECL signal,[26],817 ECL signal
same,ECL signal,[27],844 ECL signal
same,ECL signal,[28],1000 ECL signal
